The assay addresses YukE with nsAA 2 (p-azidophenylalanine) incorporated at position 44, YukE(W44TAG) (B. subtilis) (UniProt C0SP85). The assay is described as follows: cross-linking; in vivo photo-crosslinking through p-azidophenylalanine (nsAA 2) in B. subtilis cells resuspended in 1x PBS, UV 365 nm for 15 min or 60 min on ice; lysates on 17% SDS-PAGE without reductant, anti-YukE immunoblot. A general note: In western blotting, separated proteins are transferred to a membrane and probed.

These results are taken from article PMC8440579.

By stoichiometry N is commonly meant a count of units in the complex or per binding partner.

Take “YukE with nsAA 2 (p-azidophenylalanine) incorporated at position 44, YukE(W44TAG) (from UniProt C0SP85 1-97) (natural protein)”: the crosslinking efficiency stood at 100% and the stoichiometry N is 2.
